We go through 32 molecules from US20110034670A1 (BOARD OF GOVERNORS FOR HIGHER EDUCATION STATE OF RHODE …, published 2011).

B1: 3-phenylpyrazolopyrimidine-peptide conjugate 43 (3-phenylpyrazolopyrimidine-YIYGSFK) (peptide)
peptide: YIYGSFK
modifications: not fully specified (N-terminus); also: short linker between the label and the N-terminus not given here
B2: ATP-βAla-pTyr-Glu-Glu-Ile-OH (1) (peptide)
peptide: {ATP}-[βAla][pY]EEI-OH
notes: also called compound 1; ATP-phosphopeptide conjugate 1

*1 amine or outer side, *2 acyl side, *3 side chain or, on linkers, in order; H or OH if unused. Where no end group is shown, it is not given here. [ ]: non-standard residue; d: D form. Phe(4-NHSO2CH3) = 4-(methylsulfonamido)phenylalanine, CS(=O)(=O)Nc1ccc(C[C@H](N[*:1])C(=O)[*:2])cc1; Phe(4-guanidino) = N=C(N)Nc1ccc(C[C@H](N)C(=O)O)cc1; pY = N[C@@H](Cc1ccc(OP(=O)(O)O)cc1)C(=O)O; Phe(4-Cl) = N[C@@H](Cc1ccc(Cl)cc1)C(=O)O; Phe(4-F) = N[C@@H](Cc1ccc(F)cc1)C(=O)O; Phe(4-I) = N[C@@H](Cc1ccc(I)cc1)C(=O)O; Phe(NH2) = aminophenylalanine; Phe(NO2) = nitrophenylalanine; Phe(CN) = cyanophenylalanine; Phe(N3) = azidophenylalanine; βAla = NCCC(=O)O

The first experiment deals with Src tyrosine kinase. The experiment can be described thus: cell-based or functional assay.
As to Ac-YIYGSFK [Ac-YIYGSFK (41)], the “IC50, inhibition of polyE4Y phosphorylation (radioactive kinase assay)” value was 570 µM.

On to Cys-Ile-Tyr (not fully specified (N-terminus); also: short linker to N-terminus) [3-phenylpyrazolopyrimidine-peptide conjugate 45], for which the “fold reduction of inhibitory activity compared to 42” value is around 145 fold.

On to YIYGSFK(3‑phenylpyrazolopyrimidine) [3-phenylpyrazolopyrimidine-peptide conjugate 53], for which the “fold reduction of inhibitory potency compared to 43” value came to 11 fold.

Consider {3‑phenylpyrazolopyrimidine}-GCIYKYY [3-phenylpyrazolopyrimidine-peptide conjugate 54], for which the “fold reduction of inhibitory potency compared to 42” value worked out at 21 fold.

With B1, the “IC50, inhibition of polyE4Y phosphorylation by active Src” value was determined as 2.7 µM.

For Ac-CIYK[Phe(NO2)]Y [Ac-CIYKF(NO2)Y (62)], the “fold higher inhibitory potency versus 40” value is around 750 fold.

The target of a further experiment is Src tyrosine kinase. Description: cell-based or functional assay. The source holds these as a separate data set.
Turning to Ac-CIYKY [Ac-CIYKY (82)], the “IC50, inhibitory potency (Src kinase assay, polyE4Y phosphorylation)” value (“IC50, inhibitory potency” below) is above 100 µM.

Consider Ac-CI[Phe(NO2)]K[Phe(NO2)]Y [Ac-CIF(NO2)KF(NO2)Y (69)], for which the “IC50, inhibitory potency” value was 1.4 µM.

Ac-CYK[Phe(4-Cl)]Y [Ac-CYKF(4-C1)Y (83)]: the “IC50, inhibitory potency” value was determined as 39 µM.

Regarding Ac-CIYK[Phe(NO2)][Phe(NO2)] [Ac-CIYKF(NO2)F(NO2) (70)], the “IC50, inhibitory potency” value was 5.6 µM.

With Ac-CI[Phe(NO2)]KY[Phe(NO2)] [Ac-CIF(NO2)KYF(NO2) (71)], the “IC50, inhibitory potency” value stood at 3.4 µM.

For IYKYY [IYKYY (81)], the “IC50, inhibitory potency” value came to 211 µM.

As for Ac-CIYK[Phe(NO2)]YF [Ac-CIYKF(NO2)YF (65)], the “IC50, inhibitory potency” value is 1 µM.

For the molecule Ac-CYK[pY]Y [Ac-CYKpYY (84)], the “IC50, inhibitory potency” value is above 100 µM.

A further experiment has as its target Src tyrosine kinase. The experiment can be described thus: cell-based or functional assay. This is another data set of the same source.
CIYK[Phe(NO2)]Y [CIYKF(NO2)Y (77)]: the “IC50, inhibitory potency” value was determined as 3 µM.

For YI[Phe(NO2)]GSFK [YIF(NO2)GSFK (86)], the “IC50, inhibitory potency” value is above 100 µM.

As to Ac-CI[Phe(NO2)]KYY [Ac-CIF(NO2)KYY (64)], the “IC50, inhibitory potency” value was determined as 1.5 µM.

For the molecule YIYGSFK [YIYGSFK (85)], the “IC50, inhibitory potency” value was above 100 µM.

For Ac-CIYKFY [Ac-CIYKFY (61)], the “IC50, inhibitory potency” value was above 700 µM.

With Ac-YI[Phe(NO2)]GSFK [Ac-YIF(NO2)GSFK (87)], the “IC50, inhibitory potency” value is above 100 µM.

On to Ac-CIYK[Phe(4-guanidino)]Y [Ac-CIYKF(4-Guanidine)Y (73)], for which the “IC50, inhibitory potency” value was above 700 µM.

As to Ac-CI[Phe(NH2)]KYY [Ac-CIF(NH2)KYY (67)], the “IC50, inhibitory potency” value amounted to 760 µM.

For the molecule Ac-CIYKY[Phe(NO2)] [Ac-CIYKYF(NO2) (66)], the “IC50, inhibitory potency” value was 10.8 µM.

With Ac-CIYK[Phe(NH2)]Y [Ac-CIYKF(NH2)Y (63)], the “IC50, inhibitory potency” value is 93 µM.

As for Ac-CIYKY[Phe(NH2)] [Ac-CIYKYF(NH2) (68)], the “IC50, inhibitory potency” value is above 700 µM.

Turning to Ac-CIYK[Phe(CN)]Y [Ac-CIYKF(CN)Y (78)], the “IC50, inhibitory potency” value came to 6 µM.

As for Ac-CIYK[Phe(4-Cl)]Y [Ac-CIYKF(4-C1)Y (75)], the “IC50, inhibitory potency” value came to 7.3 µM.

In the case of Ac-CIYK[Phe(4-F)]Y [Ac-CIYKF(4-F)Y (74)], the “IC50, inhibitory potency” value was found to be 26 µM.

For Ac-CIYK[Phe(N3)]Y [Ac-CIYKF(N3)Y (79)], the “IC50, inhibitory potency” value worked out at 2 µM.

As for Ac-CIYK[Phe(4-NHSO2CH3)]Y [Ac-CIYKF(4-NHSO2CH3)Y (80)], the “IC50, inhibitory potency” value is above 100 µM.

Turning to Ac-CIYK[Phe(NO2)]Y [Ac-CIYKF(NO2)Y (62)], the “IC50, inhibitory potency” value was determined as 0.53 µM.

Regarding Ac-CIYK[Phe(4-I)]Y [Ac-CIYKF(4-I)Y (76)], the “IC50, inhibitory potency” value amounted to 0.78 µM.

The target of the next experiment is Src tyrosine kinase. Description: steady-state kinetics, radioactive kinase assay; ATP-binding site of Src.
In the case of B2, the Ki is 1.7 µM.
